± gives the uncertainty stated by the source.
Assay: self-splicing fitness, log relative to wild type (ln ratio); higher = more splicing; Tetrahymena group I intron in knt gene, E. coli kanamycin selection, DiMSum; sequences stand for … in CUCUCU…GGAGGGAAAAGUUAUCAGGCAUGCACCUGGUAGCUAGUCUUUAAACCAAUAGAUUGCAUCGGUUUAAAAGGCAAGACCGUCAAAUUGCGGGAAAGGGGUCAACAGCCGUUCAGUACCAAGUCUCAGGGGAAACUUUGAGAUGGCCUUGCAAAGGGUAUGGUAAUAAGCUGACGGACAUGGUCCUAACCACGCAGCCAAGUCCUAAGUCAACAGAUCUUCUGUUGAUAUGGAUGCAGUUCACAGACUAAAUGUCGGUCGGGGAAGAUGUAUUCUUCUCAUAAGAUAUAGUCGGACCUCUCCUUAAUGGGAGCUAGCGGAUGAAGUGAUGCAACACUGGAGCCGCUGGGAACUAAUUUGUAUGCGAAAGUAUAUUGAUUAGUUUUGGAGUACUCGUGGUCG
Outline: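 Six replicate transformations of E. coli BL21(DE3) with a pET-22b(+) library were grown overnight at 37°C or 30°C. The library randomised all eight P1ex-region intron nucleotides, the intron lying in the knt kanamycin-resistance gene, and plates were LB agar with or without 25 μg/mL kanamycin plus 100 μg/mL carbenicillin, 50 μM IPTG and 0.2% rhamnose. Pooled colonies were amplicon-sequenced on an Illumina HiSeq 2500, and fitness is the DiMSum error-weighted combination of wild-type-normalised replicate fold changes, kanamycin versus none.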

| Sequence | self-splicing fitness (ln) (30 °C) | self-splicing fitness (ln) (37 °C) |
| --- | --- | --- |
| GAAGAGCAAUAUUACGCUCU | -3.53 ± 0.23 | -2.74 ± 0.24 |
| GAAGAGCAAUAUUACGGAAC |  | -0.903 ± 0.29 |
| GAAGAGCAAUAUUACGGAGA | -3.22 ± 0.31 | -1.88 ± 0.32 |
| GAAGAGCAAUAUUACGGCAU | -1.96 ± 0.12 | -1.99 ± 0.17 |
| GAAGAGCAAUAUUACGGGAG | -3.15 ± 0.19 | -2.19 ± 0.23 |
| GAAGAGCAAUAUUACGGGGG | -3.04 ± 0.2 | -3.06 ± 0.29 |
| GAAGAGCAAUAUUACGGUUU | -1.52 ± 0.12 | -0.796 ± 0.16 |
| GAAGAGCAAUAUUACGUACU | -2.11 ± 0.15 | -0.163 ± 0.13 |
| GAAGAGCAAUAUUACGUUCA | -1.33 ± 0.13 | -0.0689 ± 0.13 |
| GAAGAGCAAUAUUACGUUCU | -3.88 ± 0.29 | -2.8 ± 0.27 |
| GAAUAGCAAUAUUACGAAGU |  | -2.45 ± 0.2 |
| GAAUAGCAAUAUUACGACCG | -1.03 ± 0.16 | -0.447 ± 0.2 |
| GAAUAGCAAUAUUACGAUAU | -1.43 ± 0.068 | -0.744 ± 0.085 |
| GAAUAGCAAUAUUACGAUGU | -1.3 ± 0.076 | -1.04 ± 0.12 |
| GAAUAGCAAUAUUACGCAAG | -2.44 ± 0.17 | -1.54 ± 0.15 |
| GAAUAGCAAUAUUACGCACG | -1.22 ± 0.15 | -0.764 ± 0.2 |
| GAAUAGCAAUAUUACGCAUG | -0.0618 ± 0.089 | -0.902 ± 0.091 |
| GAAUAGCAAUAUUACGCCUA | -0.724 ± 0.13 | -0.0436 ± 0.16 |
| GAAUAGCAAUAUUACGCGUG | -1.01 ± 0.075 | -0.747 ± 0.094 |
| GAAUAGCAAUAUUACGGAGC | -3.44 ± 0.26 | -1.77 ± 0.21 |
| GAAUAGCAAUAUUACGGCCG | -0.339 ± 0.18 | -0.0585 ± 0.21 |
| GAAUAGCAAUAUUACGGCCU | -0.86 ± 0.075 | 0.112 ± 0.12 |
| GAAUAGCAAUAUUACGGGUU | -2.48 ± 0.14 | -1.86 ± 0.17 |
| GAAUAGCAAUAUUACGGUAU | -3.54 ± 0.18 | -1.32 ± 0.16 |
| GAAUAGCAAUAUUACGGUUC | -3.69 ± 0.17 | -3.25 ± 0.33 |

| Sequence | self-splicing fitness (ln) (30 °C) | self-splicing fitness (ln) (37 °C) |
| --- | --- | --- |
| GAAUAGCAAUAUUACGUAAC | -0.941 ± 0.11 | -1.63 ± 0.12 |
| GAAUAGCAAUAUUACGUAGA | -3.35 ± 0.15 | -1.55 ± 0.11 |
| GAAUAGCAAUAUUACGUCAU | -1.07 ± 0.1 | -0.865 ± 0.13 |
| GAAUAGCAAUAUUACGUGAU | -3.48 ± 0.17 | -1.27 ± 0.11 |
| GAAUAGCAAUAUUACGUGGG | -3.86 ± 0.21 | -2.81 ± 0.19 |
| GAAUAGCAAUAUUACGUUGA | -2.6 ± 0.13 | -0.487 ± 0.09 |
| GACAAGCAAUAUUACGAAGG | -4.06 ± 0.19 | -2.27 ± 0.19 |
| GACAAGCAAUAUUACGAGAU | -3.73 ± 0.23 | -2.78 ± 0.23 |
| GACAAGCAAUAUUACGAUAU | -1.33 ± 0.099 | -1.4 ± 0.1 |
| GACAAGCAAUAUUACGAUUC | -0.734 ± 0.083 | -0.552 ± 0.12 |
| GACAAGCAAUAUUACGCAUA | -0.868 ± 0.11 | -0.12 ± 0.15 |
| GACAAGCAAUAUUACGCAUU | -2.91 ± 0.089 | -1.96 ± 0.11 |
| GACAAGCAAUAUUACGCCAA | -2.03 ± 0.14 | -1.61 ± 0.12 |
| GACAAGCAAUAUUACGCCUC | -2.68 ± 0.14 | -2.78 ± 0.28 |
| GACAAGCAAUAUUACGCGGG | -2.84 ± 0.095 | -2.52 ± 0.14 |
| GACAAGCAAUAUUACGCGUU | -4.47 ± 0.34 | -3 ± 0.35 |
| GACAAGCAAUAUUACGCUAA | -3.01 ± 0.23 | -2.11 ± 0.2 |
| GACAAGCAAUAUUACGCUCA | -0.336 ± 0.056 | 0.274 ± 0.073 |
| GACAAGCAAUAUUACGCUGC | -3.6 ± 0.16 | -2.87 ± 0.19 |
| GACAAGCAAUAUUACGCUGU | -3.61 ± 0.25 | -1.12 ± 0.2 |
| GACAAGCAAUAUUACGCUUU | -3.43 ± 0.42 | -2.11 ± 0.32 |
| GACAAGCAAUAUUACGGCAC | 0.362 ± 0.075 | -0.214 ± 0.11 |
| GACAAGCAAUAUUACGGCUA | -0.175 ± 0.074 | -0.187 ± 0.079 |
| GACAAGCAAUAUUACGGGGG | -3.58 ± 0.15 | -3.18 ± 0.2 |
| GACAAGCAAUAUUACGGGGU | -2.96 ± 0.12 | -3.16 ± 0.15 |

| Sequence | self-splicing fitness (ln) (30 °C) | self-splicing fitness (ln) (37 °C) |
| --- | --- | --- |
| GACAAGCAAUAUUACGGGUG | -0.472 ± 0.065 | -0.733 ± 0.081 |
| GACAAGCAAUAUUACGGUCU | -4.04 ± 0.16 | -2.42 ± 0.15 |
| GACAAGCAAUAUUACGGUUU | -1.79 ± 0.079 | -0.351 ± 0.074 |
| GACAAGCAAUAUUACGUAUG | -2.86 ± 0.11 | -1.23 ± 0.088 |
| GACAAGCAAUAUUACGUGAC | -1.47 ± 0.096 | -1.42 ± 0.12 |
| GACAAGCAAUAUUACGUUAA | -2.19 ± 0.12 | -1.71 ± 0.15 |
| GACAAGCAAUAUUACGUUAG | -3.84 ± 0.2 | -3.34 ± 0.19 |
| GACAAGCAAUAUUACGUUGA | -2.14 ± 0.09 | -1.48 ± 0.12 |
| GACCAGCAAUAUUACGAAGG | -3.3 ± 0.13 | -2.19 ± 0.18 |
| GACCAGCAAUAUUACGAGAU | -2.62 ± 0.12 | -1.05 ± 0.084 |
| GACCAGCAAUAUUACGAGGG | -3.24 ± 0.2 | -2.57 ± 0.21 |
| GACCAGCAAUAUUACGAUGU | -0.366 ± 0.055 | 0.0308 ± 0.072 |
| GACCAGCAAUAUUACGCACU | -0.104 ± 0.06 | 0.195 ± 0.079 |
| GACCAGCAAUAUUACGCAGG | -3.82 ± 0.21 | -2.49 ± 0.13 |
| GACCAGCAAUAUUACGCAUC | -0.629 ± 0.064 | -0.599 ± 0.076 |
| GACCAGCAAUAUUACGCCAC |  | -2.73 ± 0.46 |
| GACCAGCAAUAUUACGCCUC | -1.17 ± 0.097 | -0.623 ± 0.11 |
| GACCAGCAAUAUUACGCGCA | -0.663 ± 0.065 | 0.131 ± 0.093 |
| GACCAGCAAUAUUACGCUAU | -1.28 ± 0.074 | 0.126 ± 0.082 |
| GACCAGCAAUAUUACGCUGA | -1.04 ± 0.11 | -0.811 ± 0.097 |
| GACCAGCAAUAUUACGCUUA | -0.722 ± 0.053 | 0.0868 ± 0.064 |
| GACCAGCAAUAUUACGGCAA | -0.359 ± 0.067 | -0.32 ± 0.078 |
| GACCAGCAAUAUUACGGGCG | 0.17 ± 0.059 | 0.374 ± 0.078 |
| GACCAGCAAUAUUACGGUAU | -1.29 ± 0.056 | -0.678 ± 0.068 |
| GACCAGCAAUAUUACGUAUA | -1.06 ± 0.059 | -0.251 ± 0.079 |

| Sequence | self-splicing fitness (ln) (30 °C) | self-splicing fitness (ln) (37 °C) |
| --- | --- | --- |
| GACCAGCAAUAUUACGUCUU | 0.335 ± 0.05 | 0.369 ± 0.068 |
| GACCAGCAAUAUUACGUGAU | -0.306 ± 0.05 | -0.151 ± 0.063 |
| GACCAGCAAUAUUACGUGUU | -3.73 ± 0.096 | -2.44 ± 0.11 |
| GACCAGCAAUAUUACGUUAU | -0.752 ± 0.045 | -0.147 ± 0.062 |
| GACCAGCAAUAUUACGUUGU | -1.11 ± 0.047 | -0.336 ± 0.063 |
| GACGAGCAAUAUUACGAACC | -3.09 ± 0.18 | -0.495 ± 0.13 |
| GACGAGCAAUAUUACGAACG | -0.929 ± 0.34 |  |
| GACGAGCAAUAUUACGAAUU | -3.49 ± 0.14 | -2.55 ± 0.14 |
| GACGAGCAAUAUUACGACAA |  | -1.24 ± 0.24 |
| GACGAGCAAUAUUACGACUA | -1.94 ± 0.45 | -0.17 ± 0.37 |
| GACGAGCAAUAUUACGAUCC | -0.986 ± 0.21 | -0.739 ± 0.4 |
| GACGAGCAAUAUUACGAUCG | -2.3 ± 0.23 | -2.03 ± 0.19 |
| GACGAGCAAUAUUACGCAGC | -3.4 ± 0.27 | -1.69 ± 0.28 |
| GACGAGCAAUAUUACGCAUU | -2.74 ± 0.21 | -2.44 ± 0.21 |
| GACGAGCAAUAUUACGCGCG | -3.15 ± 0.16 | -2.7 ± 0.25 |
| GACGAGCAAUAUUACGGCAA | -1.91 ± 0.2 | -0.607 ± 0.14 |
| GACGAGCAAUAUUACGGGUG | -4.16 ± 0.31 | -1.89 ± 0.16 |
| GACGAGCAAUAUUACGGUCG | -2.31 ± 0.097 | -0.868 ± 0.12 |
| GACGAGCAAUAUUACGGUUC |  | -3.11 ± 0.47 |
| GACGAGCAAUAUUACGUAAC | -3.16 ± 0.23 | -0.414 ± 0.18 |
| GACGAGCAAUAUUACGUAAG | -3.67 ± 0.41 | -0.245 ± 0.22 |
| GACGAGCAAUAUUACGUAAU | -2.61 ± 0.34 | -2.16 ± 0.17 |
